Laboratory results as given in patent US20180030127A1 (APRILBIO, published 2018).

What was measured:
[1] = target: T1, human serum albumin (human, UniProt P02768 25-609); assay: ELISA, purified soluble Fab on coated HSA, pH 6; human SA, pH 6
T1 construct: Bought protein; also called HSA; human SA
Description: For the monoclonal phage ELISA, the recombinant phage was obtained from positive E. coli clones by phage rescue, and ˜10⁸ CFU/well were added to MaxiSorb ELISA plates (Nunc, Roskilde, Denmark) that were coated with 5 μg/ml HSA, RSA, MSA or BSA. The phage was allowed to bind to the antigens either at pH 6 or at pH 7.4 for 1 h at 37° C. A goat anti-human kappa L Ab-conjugated with HRPO (Sigma-Aldrich) was used as a secondary antibody. The binding signals were visualized with a TMB substrate (BD Science, San Jose, Calif., USA), and the absorbance at 450 nm was measured using an ELISA reader (Bio-Rad, Hercules, Calif., USA). The data represent the average of three experiments standard deviation. For the conventional ELISA, the various antigens [human SA, rat SA, mouse SA, monkey SA (Alpha diagnositic Intl., San Antonio, Tex., USA), canine SA (CUSABIO, Wuhan, Hubei, China). rabbit SA (Sigma-Aldrich), epidermal growth factor receptor (EGFR) (R&D systems, Minneapolis, Minn., USA), epithelial cell adhesion molecule (EpCAM) (R&D systems), IL-15 receptor a (IL-15Ra) (R&D systems), IL-10 (eBioscience, San Diego, Calif., USA), CD16a (R&D systems), c-MET (Sinobiological, Beijing, China)] at 5 μg/ml concentrations were immobilized on the microtiter plates, and the Fab molecules were allowed to bind to the antigens, and detected as above. […]

[2] = target: T2, bovine serum albumin (bovine, UniProt P02769 25-607); assay: monoclonal phage ELISA at pH 6, antigen coated at 5 ug/ml, anti-human kappa-HRPO, A450
T2 construct: also called BSA; bovine SA
T2 sequence (P02769 25-607 limits assumed): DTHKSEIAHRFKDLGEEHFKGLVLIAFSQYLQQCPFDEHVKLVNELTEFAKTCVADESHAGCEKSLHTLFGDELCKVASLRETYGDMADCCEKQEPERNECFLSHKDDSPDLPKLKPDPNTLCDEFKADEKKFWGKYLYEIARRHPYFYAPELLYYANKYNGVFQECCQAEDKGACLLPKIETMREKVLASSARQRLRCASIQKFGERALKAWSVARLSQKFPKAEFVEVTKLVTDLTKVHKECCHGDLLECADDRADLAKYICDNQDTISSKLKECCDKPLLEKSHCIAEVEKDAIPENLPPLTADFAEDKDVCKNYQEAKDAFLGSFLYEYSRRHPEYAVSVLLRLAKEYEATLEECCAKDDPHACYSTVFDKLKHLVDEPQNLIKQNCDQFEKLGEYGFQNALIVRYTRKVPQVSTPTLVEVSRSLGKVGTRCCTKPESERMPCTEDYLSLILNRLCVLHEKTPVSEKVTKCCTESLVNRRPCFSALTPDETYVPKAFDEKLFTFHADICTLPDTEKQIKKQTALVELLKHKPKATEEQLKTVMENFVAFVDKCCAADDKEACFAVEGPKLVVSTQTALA
Description: For the monoclonal phage ELISA, the recombinant phage was obtained from positive E. coli clones by phage rescue, and ˜10⁸ CFU/well were added to MaxiSorb ELISA plates (Nunc, Roskilde, Denmark) that were coated with 5 μg/ml HSA, RSA, MSA or BSA. The phage was allowed to bind to the antigens either at pH 6 or at pH 7.4 for 1 h at 37° C. A goat anti-human kappa L Ab-conjugated with HRPO (Sigma-Aldrich) was used as a secondary antibody. The binding signals were visualized with a TMB substrate (BD Science, San Jose, Calif., USA), and the absorbance at 450 nm was measured using an ELISA reader (Bio-Rad, Hercules, Calif., USA). The data represent the average of three experiments standard deviation. For the conventional ELISA, the various antigens [human SA, rat SA, mouse SA, monkey SA (Alpha diagnositic Intl., San Antonio, Tex., USA), canine SA (CUSABIO, Wuhan, Hubei, China). rabbit SA (Sigma-Aldrich), epidermal growth factor receptor (EGFR) (R&D systems, Minneapolis, Minn., USA), epithelial cell adhesion molecule (EpCAM) (R&D systems), IL-15 receptor a (IL-15Ra) (R&D systems), IL-10 (eBioscience, San Diego, Calif., USA), CD16a (R&D systems), c-MET (Sinobiological, Beijing, China)] at 5 μg/ml concentrations were immobilized on the microtiter plates, and the Fab molecules were allowed to bind to the antigens, and detected as above. To determine the concentration of soluble Fab or Fab-hGH fusion proteins, a sandwich ELISA was performed using a mouse anti-human IgG Fd mAb (AprilBio) as a capturing Ab and the goat anti-human kappa L chain pAb-HRPO conjugated (Sigma-Aldrich) as a detecting antibody. The human Fab fragment (Bethyl, Montgomery, Tex., USA) with a known concentration was used to draw the standard curve. For detecting the hGH domain, T-20, a goat pAb specific for the C-terminus of the hGH (Santacruz Biotechnology, Dallas, Tex., USA) and NYThGH, a mouse mAb specific for full-length hGH (Prospec, East Brunswick, N.J., USA) were used followed by a rabbit anti-goat IgG pAb-HRPO conjugated (Sigma-Aldrich) or a goat anti-mouse IgG pAb-HRPO conjugated (Sigma-Aldrich), respectively as a secondary antibody. A goat anti-human GCSF pAb (R&D Systems) was used to detecting the G-CSF domain, and a rabbit anti-human IFN-β pAb (PEPROTECH, Rocky Hill, USA) was used to detect the IFN-β domain.

[3] = target: T3, mouse serum albumin (mouse, UniProt P07724 25-608); assay: biolayer interferometry (Octet RED), SL335 on AR2G biosensor, MSA in solution, pH 7.4; the filing calls the data unreliable; pH 7.4; left out of Table 6 for lack of reliability
T3 construct: Bought protein; also called MSA; mouse SA
T3 sequence (P07724 25-608 limits assumed): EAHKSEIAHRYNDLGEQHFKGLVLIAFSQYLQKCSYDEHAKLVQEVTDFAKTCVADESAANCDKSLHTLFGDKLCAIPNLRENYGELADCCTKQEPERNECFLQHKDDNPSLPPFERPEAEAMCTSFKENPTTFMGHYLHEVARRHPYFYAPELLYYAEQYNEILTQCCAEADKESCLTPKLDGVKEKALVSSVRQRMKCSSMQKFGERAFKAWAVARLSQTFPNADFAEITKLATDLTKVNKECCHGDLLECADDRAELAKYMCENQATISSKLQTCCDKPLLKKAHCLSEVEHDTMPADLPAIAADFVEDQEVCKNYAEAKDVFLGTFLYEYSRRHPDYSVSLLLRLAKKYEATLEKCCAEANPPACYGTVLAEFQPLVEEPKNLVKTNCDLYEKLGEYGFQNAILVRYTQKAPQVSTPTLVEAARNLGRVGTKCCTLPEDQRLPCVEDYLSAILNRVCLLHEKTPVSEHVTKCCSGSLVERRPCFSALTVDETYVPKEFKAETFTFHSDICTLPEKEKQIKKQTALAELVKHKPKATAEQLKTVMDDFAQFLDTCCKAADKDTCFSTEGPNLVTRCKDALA
Description: Real-time binding assays between the purified SL335 and the antigens (human SA, rat SA or mouse SA) were performed using biolayer interferometry with an Octet RED system (ForteBio, Menlo park, Calif., USA) as previously described except that AR2G (Amine Reactive Second-Generation) sensors were used (Costin et al., (2013) J Virol. 87, 52-66). Briefly, the predetermined concentration of SL335 was coupled to kinetics grade AR2G biosensors, and unbound Fab fragments were removed from the surfaces of the sensors by incubating in the kinetics buffer […]. […] The binding and dissociation kinetics were calculated using the Octet QK software package, which fit the observed binding curves to a 1:1 binding model to calculate the association rate constants. The association and dissociation rate constants were calculated using at least three different concentrations of human SA, rat SA or mouse SA. The equilibrium dissociation constants were calculated as the kinetic dissociation rate constant divided by the kinetic association rate constant.
Since SL335 was the best binder among four anti-human SA Fab clones, its cross-reactivity was further analyzed by ELISA. […]

[4] = target: T4, epithelial cell adhesion molecule (UniProt P16422 24-265); assay: ELISA, soluble Fab, antigen coated at 5 µg/ml
T4 construct: also called EpCAM
T4 sequence (looked up): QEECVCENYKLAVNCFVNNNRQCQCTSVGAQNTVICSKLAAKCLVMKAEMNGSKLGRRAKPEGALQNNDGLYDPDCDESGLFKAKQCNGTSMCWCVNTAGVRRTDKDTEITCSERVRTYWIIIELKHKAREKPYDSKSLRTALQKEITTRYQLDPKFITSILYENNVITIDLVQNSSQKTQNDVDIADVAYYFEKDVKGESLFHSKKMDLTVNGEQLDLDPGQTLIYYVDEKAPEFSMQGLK

[5] = target: CD16a (UniProt P08637 17-208); assay: ELISA, soluble Fab, antigen coated at 5 µg/ml
CD16a, sequence (P08637 17-208 limits assumed): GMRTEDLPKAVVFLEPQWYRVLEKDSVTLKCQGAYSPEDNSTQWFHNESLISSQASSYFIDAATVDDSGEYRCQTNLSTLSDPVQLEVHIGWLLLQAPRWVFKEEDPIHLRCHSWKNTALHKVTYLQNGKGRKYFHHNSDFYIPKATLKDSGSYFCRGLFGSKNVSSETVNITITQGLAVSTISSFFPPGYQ

[6] = target: c-MET (UniProt P08581 25-932, limits assumed); assay: ELISA, soluble Fab, antigen coated at 5 µg/ml
c-MET, sequence (P08581 25-932 limits assumed): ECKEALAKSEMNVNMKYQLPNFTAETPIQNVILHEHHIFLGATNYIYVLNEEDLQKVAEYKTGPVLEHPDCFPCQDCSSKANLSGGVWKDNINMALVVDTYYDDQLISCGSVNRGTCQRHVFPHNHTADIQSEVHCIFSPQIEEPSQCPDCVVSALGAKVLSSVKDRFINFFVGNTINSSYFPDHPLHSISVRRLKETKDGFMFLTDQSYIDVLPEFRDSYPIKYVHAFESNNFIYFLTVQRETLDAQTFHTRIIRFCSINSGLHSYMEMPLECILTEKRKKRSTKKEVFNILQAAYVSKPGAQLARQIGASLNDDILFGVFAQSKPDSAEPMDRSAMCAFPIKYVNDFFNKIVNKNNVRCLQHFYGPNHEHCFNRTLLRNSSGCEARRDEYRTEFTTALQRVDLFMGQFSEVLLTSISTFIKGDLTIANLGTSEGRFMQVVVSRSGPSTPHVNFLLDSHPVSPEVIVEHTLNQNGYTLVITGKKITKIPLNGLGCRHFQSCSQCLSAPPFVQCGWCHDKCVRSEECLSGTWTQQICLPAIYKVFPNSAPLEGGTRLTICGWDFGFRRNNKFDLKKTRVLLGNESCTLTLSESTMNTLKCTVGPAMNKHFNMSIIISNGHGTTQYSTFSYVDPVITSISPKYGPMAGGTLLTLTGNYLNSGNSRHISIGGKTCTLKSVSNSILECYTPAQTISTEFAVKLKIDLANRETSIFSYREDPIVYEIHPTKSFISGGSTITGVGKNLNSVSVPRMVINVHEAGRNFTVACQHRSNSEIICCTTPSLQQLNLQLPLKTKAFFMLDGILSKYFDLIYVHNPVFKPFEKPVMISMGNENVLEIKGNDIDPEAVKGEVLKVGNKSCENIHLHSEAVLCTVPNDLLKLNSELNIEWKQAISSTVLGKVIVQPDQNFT

[7] = target: T5, IL-1b (UniProt P01584 117-269, limits assumed); assay: ELISA, soluble Fab, antigen coated at 5 µg/ml
T5 construct: The identity is uncertain because the two printings differ

[8] = target: T6, IL-15 receptor a (UniProt Q13261 31-205); assay: ELISA, soluble Fab, antigen coated at 5 µg/ml
T6 construct: also called IL-15Ra
T6 sequence (Q13261 31-205 limits assumed): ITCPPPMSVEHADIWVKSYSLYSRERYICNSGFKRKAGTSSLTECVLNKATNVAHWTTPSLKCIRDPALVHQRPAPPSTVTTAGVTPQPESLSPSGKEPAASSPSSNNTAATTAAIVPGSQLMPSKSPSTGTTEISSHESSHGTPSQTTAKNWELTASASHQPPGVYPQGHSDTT

[9] = target: T7, rabbit serum albumin (rabbit, UniProt P49065 25-608); assay: ELISA, soluble Fab, antigen coated at 5 µg/ml
T7 construct: also called rabbit SA
T7 sequence (P49065 25-608 limits assumed): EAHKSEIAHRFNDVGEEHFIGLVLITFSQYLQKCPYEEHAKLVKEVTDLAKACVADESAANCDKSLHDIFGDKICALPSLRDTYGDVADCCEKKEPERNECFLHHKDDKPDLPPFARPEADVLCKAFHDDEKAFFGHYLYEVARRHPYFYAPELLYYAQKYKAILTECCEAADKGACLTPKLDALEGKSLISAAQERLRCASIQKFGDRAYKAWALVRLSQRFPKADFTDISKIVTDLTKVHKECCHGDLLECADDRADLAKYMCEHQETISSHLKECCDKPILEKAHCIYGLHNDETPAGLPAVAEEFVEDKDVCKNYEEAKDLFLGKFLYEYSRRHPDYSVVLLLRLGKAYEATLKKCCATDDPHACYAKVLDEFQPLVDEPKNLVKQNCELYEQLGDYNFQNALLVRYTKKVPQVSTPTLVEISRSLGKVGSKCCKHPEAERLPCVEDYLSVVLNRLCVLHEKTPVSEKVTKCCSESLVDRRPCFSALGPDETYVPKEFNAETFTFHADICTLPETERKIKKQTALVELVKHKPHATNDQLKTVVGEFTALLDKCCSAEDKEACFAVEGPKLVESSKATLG

B1: SL335 (Fab, V domains shown)
VH: QVQLVQSGGGPVKPGGSLRLSCAASGFMFRAYSMNWVRQAPGKGLEWVSSISSSGRYIHYADSVKGRFTISRDNAKNSLYLQMNSLRAEDTAVYYCARETVMAGKALDYWGQGTLVTVSS
VL: ELVLTQSPGTLSLSPGETATLSCRASQSVGSNLAWYQQKPGQAPRLLIYGASTGATGVPARFSGSRSGTDFTLTITSLQPEDFATYYCQQYYSFLAKTFGQGTQLEIKR
notes: Human anti-serum albumin Fab in the classic form (VH+CH1 with Cys233, VL+CLk with Cys214); tested on phage and as soluble Fab purified from E. coli; also called SL335wt; SL335 Fab
Question: B1 was tested. Which EC50 [1] did it give?
Answer: The EC50 was 0.02 mg/L.

Question: Does B1 bind [2]?
Answer: Result: no binding

Question: What about the Kd [3] of the same binder?
Answer: The Kd was ~1.6 µM.

Question: Does B1 bind [4]?
Answer: Result: no binding

Question: Does B1 bind [5]?
Answer: Result: no binding

Question: Does B1 bind [6]?
Answer: Result: no binding

Question: Does B1 bind [7]?
Answer: Result: no binding

Question: Does B1 bind [8]?
Answer: Result: no binding

Question: Does B1 bind [9]?
Answer: Result: no binding
